Source: article PMC6539346, “Molecular and Structural Basis of the Proteasome α Subunit Assembly Mechanism Mediated by the Proteasome-Assembling Chaperone PAC3-PAC4 Heterodimer” (International Journal of Molecular Sciences, 2019)

Target: the molecule itself
Experiment: crystal structure; non-tagged PAC3 homodimer, 8.0 mg/mL in 20 mM Tris-HCl pH 7.5, 150 mM NaCl; crystals from 30% PEG2000 monomethyl ether, 0.1 M potassium thiocyanate, 20 °C; space group P3(1)21, 0.96 Å

B1: human PAC3 homodimer, non-tagged (natural protein)
chain: MEDTPLVISKQKTEVVCGVPTQVVCTAFSSHILVVVTQFGKMGTLVSLEPSSVASDVSKPVLTTKVLLGQDEPLIHVFAKNLVAFVSQEAGNRAVLLAVAVKDKSMEGLKALREVIRVCQVW
notes: human proteasome-assembling chaperone PAC3; source: E. coli BL21-CodonPlus (DE3)-RIL, purified
  binding result: binds
